Measurements from PMC7502524.

Target: PM20D1-flag (epitope-tagged, AAV serotype 8) (mouse) (UniProt Q8C165)
Test: SEC

Sequence of UniProt Q8C165 (Q8C165 25-503): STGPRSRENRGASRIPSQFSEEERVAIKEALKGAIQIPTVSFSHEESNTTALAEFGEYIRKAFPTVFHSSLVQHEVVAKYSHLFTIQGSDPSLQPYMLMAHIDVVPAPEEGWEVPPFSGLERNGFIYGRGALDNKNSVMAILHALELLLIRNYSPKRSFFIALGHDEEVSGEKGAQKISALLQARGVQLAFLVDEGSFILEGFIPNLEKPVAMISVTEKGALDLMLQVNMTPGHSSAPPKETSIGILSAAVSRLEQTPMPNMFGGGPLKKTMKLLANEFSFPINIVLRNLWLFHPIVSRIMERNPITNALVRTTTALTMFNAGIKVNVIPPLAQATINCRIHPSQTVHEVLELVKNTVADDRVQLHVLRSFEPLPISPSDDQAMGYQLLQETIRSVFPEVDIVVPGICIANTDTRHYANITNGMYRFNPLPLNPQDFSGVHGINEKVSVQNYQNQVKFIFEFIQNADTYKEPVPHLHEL

Q: Which percent of total anti-flag band intensity in APOB+ fractions does the source give for “APOB (APOB-containing low-density lipoproteins of mouse plasma) (natural protein)” here?
A: 91%
